Laboratory results as given in the supplement of paper PMC10567573.

B1: FEM1A (parent)
chain: PCCSSSPEEPLNGESYESCCPTSR

Variants of: B1
Experiment: protein stability index of a GFP-peptide fusion (GPS, HEK-293T) (PSI 1-6); higher = more stable
Conditions: c terminus: a fixed tail appended
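Note: lentivirally expressed fusions sorted by FACS into six bins by GFP to DsRed ratio, PSI derived from sequencing read proportions per bin multiplied by bin number.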

| Variant | protein stability index |
| --- | --- |
| PCCSSSPEEPLNGESYVSCCPTSR | 2.87 |
| PCCSSSPEEPLNGESYYSCCPTSR | 2.52 |
| PCCSSSPEEPLNGESYWSCCPTSR | 1.72 |
| PCCSSSPEEPLNGESYESCCPCSR | 4.41 |
| PCCSSSPEEPLNGESYESCCPMSR | 3.45 |
| PCCSSSPEEPLNGESYESCCPLSR | 3.66 |
| PCCSSSPEEPLNGESYESCCPHSR | 3.37 |
| PCCSSSPEEPLNGESYESCCPSSR | 4.04 |
| PCCSSSPEEPLNGESYESCCPASR | 3.99 |
| PCCSSSPEEPLNGESYESCCPISR | 3.38 |
| PCCSSSPEEPLNGESYESCCPQSR | 4.21 |
| PCCSSSPEEPLNGESYESCCPRSR | 3.09 |
| PCCSSSPEEPLNGESYESCCPFSR | 3.36 |
| PCCSSSPEEPLNGESYESCCPPSR | 3.13 |
| PCCSSSPEEPLNGESYESCCPDSR | 4.61 |
| PCCSSSPEEPLNGESYESCCPKSR | 3.79 |
| PCCSSSPEEPLNGESYESCCPGSR | 3.53 |
| PCCSSSPEEPLNGESYESCCPNSR | 3.9 |
| PCCSSSPEEPLNGESYESCCPESR | 4.53 |
| PCCSSSPEEPLNGESYESCEPTSR | 4.24 |
| PCCSSSPEEPLNGESYESCMPTSR | 3.18 |
| PCCSSSPEEPLNGESYESCWPTSR | 3.69 |
| PCCSSSPEEPLNGESYESCPPTSR | 3.06 |
| PCCSSSPEEPLNGESYESCKPTSR | 3.31 |

| Variant | protein stability index |
| --- | --- |
| PCCSSSPEEPLNGESYESCNPTSR | 4.35 |
| PCCSSSPEEPLNGESYESCFPTSR | 2.91 |
| PCCSSSPEEPLNGESYESCAPTSR | 3.53 |
| PCCSSSPEEPLNGESYESCRPTSR | 4.08 |
| PCCSSSPEEPLNGESYESCIPTSR | 3.54 |
| PCCSSSPEEPLNGESYESCQPTSR | 3.54 |
| PCCSSSPEEPLNGESYESCLPTSR | 3.7 |
| PCCSSSPEEPLNGESYESCYPTSR | 3.38 |
| PCCSSSPEEPLNGESYESCTPTSR | 3.91 |
| PCCSSSPEEPLNGESYESCHPTSR | 3.32 |
| PCCSSSPEEPLNGESYESCGPTSR | 3.25 |
| PCCSSSPEEPLNGESYESCSPTSR | 4.14 |
| PCCSSSPEEPLNGESYESCVPTSR | 3.47 |
| PCCSSSPEEPLNGESYESCDPTSR | 4.12 |
| PCCSSSPEEPLNGESYESACPTSR | 3.94 |
| PCCSSSPEEPLNGESYESKCPTSR | 4.25 |
| PCCSSSPEEPLNGESYESMCPTSR | 3.49 |
| PCCSSSPEEPLNGESYESWCPTSR | 1.98 |
| PCCSSSPEEPLNGESYESRCPTSR | 3.97 |
| PCCSSSPEEPLNGESYESDCPTSR | 4.5 |
| PCCSSSPEEPLNGESYESECPTSR | 4.54 |
| PCCSSSPEEPLNGESYESSCPTSR | 4.11 |
| PCCSSSPEEPLNGESYESHCPTSR | 3.57 |
| PCCSSSPEEPLNGESYESLCPTSR | 3.28 |

| Variant | protein stability index |
| --- | --- |
| PCCSSSPEEPLNGESYESQCPTSR | 4.09 |
| PCCSSSPEEPLNGESYESNCPTSR | 3.67 |
| PCCSSSPEEPLNGESYESICPTSR | 3.72 |
| PCCSSSPEEPLNGESYESGCPTSR | 3.61 |
| PCCSSSPEEPLNGESYESTCPTSR | 3.56 |
| PCCSSSPEEPLNGESYESVCPTSR | 3.89 |
| PCCSSSPEEPLNGESYESPCPTSR | 4.08 |
| PCCSSSPEEPLNGESYESFCPTSR | 3.76 |
| PCCSSSPEEPLNGESYESYCPTSR | 3.72 |
| PCCSSSPEEPLNGESYESCCATSR | 3.68 |
| PCCSSSPEEPLNGESYESCCVTSR | 3.1 |
| PCCSSSPEEPLNGESYESCCLTSR | 3.51 |
| PCCSSSPEEPLNGESYESCCCTSR | 3.92 |
| PCCSSSPEEPLNGESYESCCTTSR | 3.76 |
| PCCSSSPEEPLNGESYESCCMTSR | 2.28 |
| PCCSSSPEEPLNGESYESCCSTSR | 3.09 |
| PCCSSSPEEPLNGESYESCCITSR | 2.6 |
| PCCSSSPEEPLNGESYESCCGTSR | 3.78 |
| PCCSSSPEEPLNGESYESCCWTSR | 2.62 |
| PCCSSSPEEPLNGESYESCCQTSR | 4.17 |
| PCCSSSPEEPLNGESYESCCFTSR | 3.04 |
| PCCSSSPEEPLNGESYESCCYTSR | 3.01 |
| PCCSSSPEEPLNGESYESCCETSR | 4.19 |
| PCCSSSPEEPLNGESYESCCDTSR | 5 |

| Variant | protein stability index |
| --- | --- |
| PCCSSSPEEPLNGESYESCCRTSR | 4.13 |
| PCCSSSPEEPLNGESYESCCNTSR | 3.81 |
| PCCSSSPEEPLNGESYESCCKTSR | 3.81 |
| PCCSSSPEEPLNGESYESCCHTSR | 3.71 |
| PCCSSSPEEPLNGESYETCCPTSR | 4.19 |
| PCCSSSPEEPLNGESYELCCPTSR | 3.01 |
| PCCSSSPEEPLNGESYEVCCPTSR | 3.45 |
| PCCSSSPEEPLNGESYEECCPTSR | 4 |
| PCCSSSPEEPLNGESYEHCCPTSR | 3.74 |
| PCCSSSPEEPLNGESYEYCCPTSR | 3.07 |
| PCCSSSPEEPLNGESYERCCPTSR | 3.11 |
| PCCSSSPEEPLNGESYEWCCPTSR | 2.5 |
| PCCSSSPEEPLNGESYEKCCPTSR | 3.64 |
| PCCSSSPEEPLNGESYEACCPTSR | 4.71 |
| PCCSSSPEEPLNGESYECCCPTSR | 4.24 |
| PCCSSSPEEPLNGESYENCCPTSR | 3.68 |
| PCCSSSPEEPLNGESYEFCCPTSR | 2.89 |
| PCCSSSPEEPLNGESYEQCCPTSR | 4.02 |
| PCCSSSPEEPLNGESYEPCCPTSR | 4 |
| PCCSSSPEEPLNGESYEDCCPTSR | 4.23 |
| PCCSSSPEEPLNGESYEMCCPTSR | 3.06 |
| PCCSSSPEEPLNGESYEICCPTSR | 3.03 |
